From the supplement of paper PMC9170038

Legend:
Settings in all cases: FMN input: 0 or 200 uM; Eterna round: R93 (includes R88 designs)
MS2 coat protein [1] = test: apparent KD of MS2 coat protein, switch ON state; designed switch direction (-1 OFF switch, 1 ON switch): 1; higher = weaker reporter binding
Procedure, shortened: (§1)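 Binding of SNAP-549-labelled MS2 coat protein was measured on designed RNA switches transcribed on-chip from Illumina sequencing clusters. The protein rose in twofold steps from 0.7 or 1.5 nM to 3 µM, with 0.8–1.5 h per step early on and 10–20 min per step later, in 100 mM Tris-HCl pH 7.5, 80 mM KCl, 4 mM MgCl2, without or with constant ligand. Each design's apparent KD is the median of fits to its normalised cluster binding curves.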

MS2 coat protein [2] = test: apparent KD of MS2 coat protein, switch OFF state (with FMN for OFF switches, without FMN for ON switches); designed switch direction (-1 OFF switch, 1 ON switch): 1; higher = weaker reporter binding
Procedure, shortened: as §1

MS2 coat protein [3] = test: apparent KD of MS2 coat protein, switch OFF state (with FMN for OFF switches, without FMN for ON switches); designed switch direction (-1 OFF switch, 1 ON switch): -1; higher = weaker reporter binding
Procedure, shortened: as §1

MS2 coat protein [4] = test: apparent KD of MS2 coat protein, switch ON state; designed switch direction (-1 OFF switch, 1 ON switch): -1; higher = weaker reporter binding
Procedure, shortened: as §1

Row | Sequence | apparent KD of MS2 coat protein (MS2 coat protein [1]) [nM] | apparent KD of MS2 coat protein (MS2 coat protein [2]) [nM] | apparent KD of MS2 coat protein (MS2 coat protein [3]) [nM] | apparent KD of MS2 coat protein (MS2 coat protein [4]) [nM]
1 | AAAAAAAAAACGCAGGAUAUCCAAAAAAAAACAUGAGGAUCACCCAUGUAAAAAAAAAAAAAAUGGGAGAAGGGUGAAAAAAAAAA [Louisiana 6 - Jieux - Same State 2] | 49.9 | 114 | – | –
2 | AAAAAAAAAAGACAGGAUAUACAAUAUAUUACAUGAGGAUCACCCAUGUUUUUUUUUUAAUUAAAGUAGAAGGGUCAAAAAAAAAA [SS 2.1] | 25.6 | 30.3 | – | –
3 | AAAAAAAAAAGACAGGAUAUCCAAAAAAAAACAUGAGGAUCACCCAUGUAAAAAAAAAAAAAGUGGGAGAAGGGUCAAAAAAAAAA [Louisiana 4 - Jieux - Same State 2] | 24.9 | 38.4 | – | –
4 | AAAAAAAAAAGUCAGGAUAUACAAAUUUUUACAUGAGGAUCACCCAUGUUAAGGAAAAAAAAAAAGUAGAAGGGACAAAAAAAAAA [Same State 2 - Omei 3] | 15.3 | 21.4 | – | –
5 | AAAAAAAAAAGUGAGGAUAUGGGAAAAUUAACAUGAGGAUCACCCAUGUGAUAAAAAAAAAAAAACCAGAAGGUACAAAAAAAAA [Original 73%, More Wateronthemoon, 1] | 16 | 42.3 | – | –
6 | AAAAAAAAAAGUGAGGAUAUGGGAAAAUUAACAUGAGGAUCACCCAUGUGAUAAAAAAAAAAAAACCAGAAGGUACAAAAAAAAAA [Same 2] | 26.1 | 35 | – | –
7 | AAAAAACAUGAGGAUCACCCAUGUAAAAAAACAUGAGGAUAUAUAAAAAAAAAAAAAAAGAUAGAAGGCAUAAAUA [JR_SS001_Sub1201] | 128 | 77.4 | – | –
8 | AAAAAACAUGAGGAUCACCCAUGUAAAAAAAUCGCAGGAUAUACGGUCGCGAAAGCGACCGUAGAAGGGCGAUCCU [Louisiana 3 - Jieux - Same State 1] | 59.1 | 75.3 | – | –
9 | AAAAAACAUGAGGAUCACCCAUGUAAUAAAACGUCAGGAUAUUGAUUUUAUUAUUUAUUACAAGAAGGGACAAAAA [Same State 1 - Omei 1] | 35 | 55 | – | –
10 | AAAAAACAUGAGGAUCACCCAUGUAAUACAACAUCAGGAUAUUGAUUUUACUAUGUAUUGCAAGAAGGGAUGAAAA [Same State 1.3a (Same State 1 - Omei 2 )] | 71.2 | 45.2 | – | –
11 | AAAAAACAUGAGGAUCACCCAUGUAGAAAUAUGGGAGGAUAUGGAAACACGAAAGUGAAACCAGAAGGCUCAAAAG [77%, Mat - Mod of Eli, 8] | 26.6 | 69.5 | – | –
12 | AAAAAACAUGAGGAUCACCCAUGUCGAAAGACAUGAGGAUAUGUACAGACUUCGGUCUGUACAGAAGGCAUGAAAA [SS1 - 1012] | 114 | 79.3 | – | –
13 | AAAAAACAUGAGGAUCACCCAUGUCUUCGGACGUGAGGAUAUGUACAGACUUCGGUCUGUACAGAAGGCAUGUAAA [SS1 - 1052] | 286 | 186 | – | –
14 | AAAAAAGAUCUAGAGGAUAUCCGAGUGGUAACAUGAGGAUCACCCAUGUGAAGAAAGGAACAUGAGGAGAAGGCUAGAUCAAAAA [JL Nando Mod 1] | 7.87 | 10.7 | – | –
15 | AAAAAAUAAAAAAAGGAUAUAAUGCUACAGACAUGAGGAUCACCCAUGUAGGUAGCAAAAAUAAAAAAGAAGGAAAAAUAAAAAA [SS2: MS2 31] | 11.4 | 13.1 | – | –
16 | AAAAACGUGGCGUAGGAUAUACUAAUAUUCACAUGAGGAUCACCCAUGUUCAUAUAUAUGAACGAGUAGAAGGACGACGAAAAAA [Mat - Same state - Malcolm Mod - D106] | 29.5 | 107 | – | –
17 | AAAACACAUGAGGAUCACCCAUGUAGAAAUACGGGAGGAUAUGCGAAAACGAAAGACAAAGCAGAAGGCCUAAAAG [saturn 6] | 12.3 | 35 | – | –
18 | AAAACACAUGAGGAUCACCCAUGUGCAAAAUUCGCAGGAUAUUCCUCAAUUAAAUGAAAGGAAGAAGGGUGAUAAA [Nob's Hobby 32 - Jieux - Same State 1] | 17.8 | 50.2 | – | –
19 | AAAAGACAUGAGGAUCACCCAUGUAAAAACAUAGGAGGAUAUGUCUUGAAAAAAGACUUGACAGAAGGCCUUUGUC [SS1 - 52] | 39.5 | 75.2 | – | –
20 | AAAAGACAUGAGGAUCACCCAUGUCAAAAGACAUGAGGAUAUGUACAGACUUCGGUCUGUACAGAAGGCAUAAAAA [SS1 - 1060] | 18.6 | 32.5 | – | –
21 | AAAAGACAUGAGGAUCACCCAUGUCCUCGGACAUGAGGAUAUGUACAGACUUCGGUCUGUACAGAAGGCAUAAAAA [SS1 - 1063] | 71.2 | 349 | – | –

Row | Sequence | apparent KD of MS2 coat protein (MS2 coat protein [1]) [nM] | apparent KD of MS2 coat protein (MS2 coat protein [2]) [nM] | apparent KD of MS2 coat protein (MS2 coat protein [3]) [nM] | apparent KD of MS2 coat protein (MS2 coat protein [4]) [nM]
22 | AAAAGACAUGAGGAUCACCCAUGUGAAAACGUAGGAGGAUAUGUCUGGAAACCAGACUGGACAGAAGGCCUGUGUC [SS1 - 32] | 26.7 | 33.1 | – | –
23 | AAAAUAAAAUAAAAGGAUAUAAAAUAAAAAACAUGAGGAUCACCCAUGUAAAAACAUGGGAAAAAAAAGAAGGAAAAAUAAAAAA [SS2: 71 No MS2] | 603 | 1280 | – | –
24 | AAAAUACAUGAGGAUCACCCAUGUGAAAAUAUGGGAGGAUAUACCGAAAAAAAAAAAAAGGUAGAAGGCCCAAAAA [SS! 1 MT 5] | 17.1 | 69.2 | – | –
25 | GGGCCACAUGAGGAUCACCCAUGUAAGGAUAUGCUAGGGAGGGAAAAAAUUUCGCCAGGCAGAAGGUACUAAAG [Janelle Amethyst 18 Mod 7 - Jieux - Exclusion 1] | – | – | 31.4 | 23.6
26 | GGGUAACAUGAGGAUCACCCAUGUGAGGAUAUUCUAGGGAUGGAAGCUCGGCCGGCCAGGAGAAGGUACUAAAG [Janelle Amethyst 18 Mod 20 - Jieux - Exclusion 1] | – | – | 36.8 | 26.3
27 | GGUUGGCGAGGAUAUACAUGAGGAUCACCCAUGUGAGAGAAAAAAGUGAGAAAGAAAAGUAGAAGGCGCUGACU [salish99-ex3-04] | – | – | 262 | 54.5
28 | GGUUGGCGAGGAUAUACAUGAGGAUCACCCAUGUGAGAGAAAAAAGUGAGAAAGAAAAGUAGAAGGUGUUGACG [salish99-ex3-70] | – | – | 56.7 | 55.4
29 | GGUUGGCGAGGAUAUACAUGAGGAUCACCCAUGUGAGAGAAAAAAGUGAGGAGGGAAAGUAGAAGGCGCUGACG [salish99-ex3-16] | – | – | 41.9 | 27.3
30 | GGUUGGCGAGGAUAUACAUGAGGAUCACCCAUGUGAGAGAUAAAAGUGAGAAAGAAAAGUAGAAGGCGCUGACG [salish99-ex3-45] | – | – | 65 | 29.2
31 | GGUUGUGUAGGAUAUACAUGAGGAUCACCCAUGUGAGAGAAAAAAGUGAGAAAGAAAAGUAGAAGGACGUGACG [salish99-ex3-72] | – | – | 42.7 | 45.3
32 | GUCCGACAUGAGGAUCACCCAUGUAAGGAUAUGUAUCCUUCGGCCCGAACCAGAGGAAGCAGAAGGUACAGGGA [Oneserqu] | – | – | 20.9 | 24.8
33 | GUCCUACAUGAGGAUCACCCAUGUCAGGAUAUGUAGCGUCCGAGCGAAAAGGCCCGGAGCAGAAGGGACAGGUG [Maisbia] | – | – | 20.1 | 16.1
34 | GUGUACAGAGGAUAUACAUGAGCAUGGAAACAUGCAGGAUCACAUGAGGAUCACCCAUGUAGAAGGCUGUACAC [Ex2: 732] | – | – | 12 | 35.1
35 | UAAAAGUGAGGAUAUUCGGAUAGGAAAACGAAAACCUAUCCGAAGAAGGCACAUGAGGAUCACCCAUGUGGAAU [Mat - Exaclusion 4 - Eli mod - D48] | – | – | 36 | 31.3
36 | UAAAGACAUGAGGAUCACCCAUGUGAGGAUAUCGGAGACAACAGAACAUCAAGUACAAUGAGAAGGCACAGAAA [JR_Exc001_Sub018] | – | – | 47.1 | 40.6
37 | UACUUACAUGAGGAUCACCCAUGUCAGGAUAUGCGCUCAGAGUAUAUAUAAGAUUCAAGCAGAAGGGACACUAA [JR_Exc001_Sub204] | – | – | 37.2 | 34.8
38 | UCACACCUAGGAUAUACAUGAGGAUCACCCAUGUGGCACUCCGCAGGCAUUGCUCCCAGUAGAAGGAGGACACG [Veterexe] | – | – | 23.8 | 18.9
39 | UCCGGAUUAGGAUAUACAUGAGGAUCACCCAUGUGACAAAAAUAUUUUACAAAACCAUGUAGAAGGAAUCCGGA [E3-1.3] | – | – | 408 | 125
40 | UCCUCACAUGAGGAUCACCCAUGUCAGGAUAUCUCACAGCGAAAGAAUAAAGGCUGCAAGAGAAGGGACACAAA [Raisa] | – | – | 44.2 | 22.7
41 | UCCUUACAUGAGGAUCACCCAUGUUAGGAUAUCUCGCUUGCGCAAUCACAGCGCAAGCAGAGAAGGGACGCGGG [Ledige] | – | – | 29.1 | 22.8
42 | UUUAAGUGAGGAUAUACGAAUAGUAAGUAAGUAUAACAGACGUAGAAGGCACAUGAGGAUCACCCAUGUAAAUA [JR_Exc004_Sub305] | – | – | 18.6 | 24.4
